Target: Human calmodulin (human, UniProt P0DP23 1-149)
Test: circular dichroism

B1: pCaN peptide, the CaM binding region in the RD of αCaN (peptide)
peptide: ARKEVIRNKIRAIGKMARVFSVLR
  binding result: binds

Reference: publication PMC3258384 (Journal of Molecular Biology, 2011)
